From patent US20190359693A1 (Janssen / Centocor, published 2019)
Read-outs that look alike come from different tables or passages of the source.

What was measured:
[1] = molecular target: HA of B/Malaysia/2506/04 (Victoria) (influenza B virus); assay: cell-based or functional assay
[2] = molecular target: HA of B/Harbin/7/94 (Yamagata) (influenza B virus); assay: cell-based or functional assay
HA of H7N9 A/Anhui/1/13 = HA of H7N9 A/Anhui/1/13 (influenza A virus); assay: cell-based or functional assay
[3] = molecular target: HA of H3N2 A/Panama/2007/99 (influenza A virus); assay: cell-based or functional assay
[4] = molecular target: HA of H10N7 A/Chick/Germany/N/49 (influenza A virus); assay: cell-based or functional assay
[5] = molecular target: HA of H4 A/WF/HK/MPA892/06 (influenza A virus); assay: cell-based or functional assay
HA of H3N2 A/HK/1/68-MA [6] = molecular target: HA of H3N2 A/HK/1/68-MA (influenza A virus); assay: cell-based or functional assay
HA of H7N7 A/PR8 H7N7-NY = HA of H7N7 A/PR8 H7N7-NY (influenza A virus); assay: cell-based or functional assay
[7] = molecular target: HA of H1N1 A/Puerto Rico/8/34-MA (influenza A virus); assay: cell-based or functional assay
HA of H3N2 A/HK/1/68 [8] = molecular target: T1, HA of H3N2 A/HK/1/68 (influenza A virus, UniProt Q91MA7 17-530); assay: cell-based or functional assay
[9] = molecular target: HA of H5N1 A/PR8 H5N1 HK97 (influenza A virus); assay: cell-based or functional assay
[10] = molecular target: HA of H3N2 A/Wisconsin/67/2005 (influenza A virus); assay: cell-based or functional assay
[11] = molecular target: HA of H10N7 A/Chick/Germany/N/49 (influenza A virus); assay: cell-based or functional assay; remark: listed apart in the source
[12] = molecular target: HA of H4 A/WF/HK/MPA892/06 (influenza A virus); assay: cell-based or functional assay; remark: listed apart in the source
HA of H3N2 A/HK/1/68-MA [13] = molecular target: HA of H3N2 A/HK/1/68-MA (influenza A virus); assay: cell-based or functional assay; remark: listed apart in the source
[14] = molecular target: HA of H2N2 A/Guiyang/1/57 (influenza A virus); assay: cell-based or functional assay
[15] = molecular target: HA of H2N2 A/WF/HK/MPU3156/05 (influenza A virus); assay: cell-based or functional assay
HA of H3N2 A/HK/1/68 [16] = molecular target: T1, HA of H3N2 A/HK/1/68; assay: BLI (Octet)
[17] = molecular target: recombinant HA of H1N1 A/New Caledonia/20/1999 (influenza A virus, UniProt Q289M7 18-565); assay: biolayer interferometry (Octet), steady-state fit, geometric mean
[18] = molecular target: hemagglutinin (HA) of influenza virus H1N1 A/Puerto Rico/8/34-MA (influenza A virus); assay: cell-based or functional assay
[19] = molecular target: hemagglutinin (HA) of influenza virus H5N1 A/Vietnam/1194/04 (influenza A virus); assay: cell-based or functional assay
[20] = molecular target: hemagglutinin (HA) of influenza virus H3N2 A/Wisconsin/67/05 (influenza A virus); assay: cell-based or functional assay
[21] = molecular target: hemagglutinin (HA) of influenza virus H1N1 A/California/07/09 (influenza A virus); assay: cell-based or functional assay
HA of B/Lee/40 [22] = molecular target: T2, HA of B/Lee/40 (influenza B virus, UniProt P03460 16-552); assay: cell-based or functional assay
HA of B/Lee/40 [23] = molecular target: T2, HA of B/Lee/40; assay: cell-based or functional assay; remark: listed apart in the source
[24] = molecular target: HA of B/Harbin/7/94 (Yamagata) (influenza B virus); assay: cell-based or functional assay; remark: listed apart in the source
[25] = molecular target: HA of H5N1 A/Vietnam/1194/04 (influenza A virus); assay: cell-based or functional assay

B1: SD1086 (VHH)
VHH: EVQLVESGGGLVQAGGSLRLSCTASGSISSIDYMRWYRQYPGKHRELVATITSGGAADSRDSVKGRFTVSRGNAANTMYLQMNNLKPEDTAVYYCNAYGLEIGAHWGRGTQVTVSS
VNA titer [1]: > 1000 nM
VNA titer [2]: > 1000 nM

B2: SD1046 (VHH)
VHH: EVQLVESGGGLVQAGDSLRISCAASGRTLSIYSMGWFRQAPGKEREFVATIGWNSGRTFYPDSLKGRFTISRDNARNTLYLQMNNLRPEDTAVYYCAAAKGPLRLSSQADYWGQGTQVTVSS
VNA titer (HA of H7N9 A/Anhui/1/13): 46.1 nM
VNA titer [3]: > 1000 nM
VNA titer [4]: 34.3 nM
VNA titer [5]: 34.3 nM
VNA titer (HA of H3N2 A/HK/1/68-MA [6]): 26.4 nM
VNA titer (HA of H7N7 A/PR8 H7N7-NY): 25.9 nM
VNA titer [7]: > 1000 nM
VNA titer (HA of H3N2 A/HK/1/68 [8]): 202 nM
VNA titer [9]: > 1000 nM
VNA titer [10]: > 1000 nM

B3: SD1076 (VHH)
VHH: EVQLVESGGGLVQAGGSLTLSCAGSGFAFSIATMGWYRQAPGKQRELVADITSGGSTNYADSVKGRFTISRDNAKNTVYLQMNSLKPEDTAVYYCNADSLATGWRQYSYWGKGTQVTVSS
notes: llama sdAb
VNA titer [11]: > 1000 nM
VNA titer [12]: > 1000 nM
VNA titer (HA of H3N2 A/HK/1/68-MA [13]): > 1000 nM
VNA titer [14]: > 1000 nM
VNA titer [15]: 38.5 nM
binding result (HA of H3N2 A/HK/1/68 [16]): no binding (tested: HA 20 µg/mL)

B4: MD1209 (VHH)
chain: EVQLVESGGGLVQAGGSLKLSCAASGRTYAMGWFRQAPGKEREFVAHINALGTRTYYSDSVKGRFTISRDNAKNTEYLEMNNLKPEDTAVYYCTAQGQWRAAPVAVAAEYEFWGQGTQVTVSSAAAGGGGSGGGGSGGGGSGGGGSGGGGSGGGGSGGGGSEVQLVESGGGLVQAGGSLKLSCAASGRTYAMGWFRQAPGKEREFVAHINALGTRTYYSDSVKGRFTISRDNAKNTEYLEMNNLKPEDTAVYYCTAQGQWRAAPVAVAAEYEFWGQGTQVTVSS
Kd [17]: 1.9 nM
neutralization titer [18]: 221 nM
neutralization titer [19]: < 1000 nM
neutralization titer [20]: 109 nM
neutralization titer [21]: 10.1 nM

B5: MD1212 (VHH)
chain: EVQLVESGGGLVQPGGSLRLSCAVSISIFDIYAMDWYRQAPGKQRDLVATSFRDGSTNYADSVKGRFTISRDNAKNTLYLQMNSLKPEDTAVYLCHVSLYRDPLGVAGGMGVYWGKGALVTVSSAAAGGGGSGGGGSGGGGSGGGGSGGGGSGGGGSGGGGSEVQLVESGGGLVQPGGSLRLSCAVSISIFDIYAMDWYRQAPGKQRDLVATSFRDGSTNYADSVKGRFTISRDNAKNTLYLQMNSLKPEDTAVYLCHVSLYRDPLGVAGGMGVYWGKGALVTVSS
Kd [17]: 1.4 nM
neutralization titer [18]: 11.7 nM
neutralization titer [19]: 14.8 nM
neutralization titer [20]: 49.5 nM
neutralization titer [21]: 3.7 nM

B6: SD1048 (VHH)
VHH: EVQLVESGGGVVQPGGSLRLSCVASGRTSSMYSIGWFRQAPGKEREFVAVIGWYSGRTFYTDSMKGRFTISRDNARNTVYLQMNSLKPEDTAVYYCAAANGPLRLSNQADYWGQGTQVTVSS
VNA titer [3]: > 1000 nM
VNA titer [4]: 34.3 nM
VNA titer [5]: 34.3 nM
VNA titer (HA of H3N2 A/HK/1/68-MA [6]): 110 nM
VNA titer (HA of H7N7 A/PR8 H7N7-NY): 93 nM
VNA titer [7]: > 1000 nM
VNA titer [9]: > 1000 nM
VNA titer [10]: > 1000 nM

B7: SD1049 (VHH)
VHH: EVQLVESGGGLVQAGGSLRLSCAASGRTLSLYSVGWFRQAPGKEREFVATIGWNSGRTFYVDSMKGRFTISRDNAKNTVYLQMNDLKVEDTAVYYCAAAKGPLRLSNQADYWGQGTQVTVSS
VNA titer (HA of H3N2 A/HK/1/68-MA [6]): 76.1 nM
VNA titer [7]: > 1000 nM

B8: SD1083 (VHH)
VHH: EVQLVESGGGLVQPGGSLRLSCAATGFTLENKAIGWFRQTPGSEREGVLCISKSGSWTYYTDSMRGRFTISRDNAENTVYLQMDSLKPEDTAVYYCATTTAGGGLCWDGTTFSRLASSWGQGTQVTVSS
VNA titer (HA of B/Lee/40 [22]): 217 nM
VNA titer [1]: 294 nM
VNA titer [2]: 259 nM
hemagglutination inhibition titer (HA of B/Lee/40 [23]): > 50 µg/mL
hemagglutination inhibition titer [24]: > 50 µg/mL
hemagglutination inhibition titer [25]: > 50 µg/mL
